Experimental data reported in PMC9984387, “The dynamic nature of netrin-1 and the structural basis for glycosaminoglycan fragment-induced filament formation” (Nature Communications, 2023).

Biological target: His-tagged NET1ΔC (coated in ELISA) (not stated (chicken or mouse cDNA cloned))
Assay: ELISA; NET1ΔC coated; serial dilutions of strep-tagged HSPGs (0.5–500 nM) in solution; detection with strep-HRP; apparent constants

## glypican-3 (AF185614 aa 25-557 R357A) (from UniProt Q8CFZ4 25-557) (domain or fragment)
  Kd: 10 to 20 nM
